# B1: COVIC-385 (antibody, V domains shown)
# VH: EVQLVESGGGLVQPGGSLRLSCKASGISVAPHAVTWVRQAPGKGLEWIGVIASNADTYYASWAKGRFTISRDNSKNTLYLQMNSLRAEDTAVYYCARHPGSAGYGYTYYYAMDPWGQGTLVTVSS
# VL: DIQMTQSPSSLSASVGDRVTITCQASERVFYGIDWYQQKPGKAPKLLIYGASALWHGVPSRFSGSGSGTDYTLTISSLQPEDFATYYCQQGYMVPIGFGGGTKVEIK
# B2: COVIC-172 (antibody, V domains shown)
# VH: QVQLVESGGDVVQPGRSLRLSCAASGFTFSRYGMHWVRQAPGKGLEWVAVISYDGSDKYYADSVKGRFTISRDNSKNTLYLQMNSLRAEDTAVYYCAKQLPLYYYYYGMDVWGQGTTVTVSS
# VL: AIQLTQSPSSLSASVGDRVTITCRASQGISSALAWYQQKPGKAPNLLIYDASSLESGVPSRFSGSGSGTDFTLTISSLQPEDFATYYCQQFNIYPHTFGPGTKVDIKR
# B3: COVIC-249 (antibody, V domains shown)
# VH: QVQLVQPGGGVIQPGRSLRLSCTASGFTFSSYPMHWVRQAPGKGLEWVAVISYDGDNKYYADSVKGRFTISRDNSKNTLYLQMNSLKSDDTAMYYCARDYVVVILSDSFYYGMDVWGQGTTVTVSS
# VL: QSALTQPRSVSGSPGQSVTISCTGTSSDVGGYNYVSWYQQYPGKAPKLMIYDVSKRPSGVPDRFSGSKSGNTASLTISGLQGEDEADYYCCSYAGSYTYVFGTGTKVTVL
# B4: COVIC-391 (antibody, V domains shown)
# VH: QVQLVQSGAEVKKPGSSVKVSCKASGGTFSSYVINWVRQAPGQGLEWMGGIIPTLGTTNYAQKFQGRVTITADKSTSTAYMELSSLRSEDTAVYYCARAGGYSGSGSNYYMDVWGKGTTVTVSS
# VL: QSVLTQPPSVSGAPGQRVTISCTGSSSNIGAGYDVHWYQQLPGTAPKLLIYANNNRPSGVPDRFSGSNSGTSASLAITGLQAEDEADYYCQSYDSSLSDSVFGGGTKLTVL
# B5: COVIC-166 (antibody, V domains shown)
# VH: QVQLVESGGGVVQPGRSLRLSCAASGFTFSSYGMHWVRQAPGKGLEWVAVISYDGSDKYYADSVKGRFTISRDNSKNTLYLQMNSLRAEDTAVYYCAKTVAGYYYYYYGMDVWGQGTTVTVSS
# VL: DIQMTQSPSSVSASVGDRVTVTCRASQDISSWLAWFQQKPGKAPKFLIYDASNLENGVPSRFSGSGSGTDFTLTISSLQPEDFATYYCQQAKSFPWTFGQGTKVEINR
# B6: COVIC-310 (antibody)
# chain 1: QVQLVQSGAEVKKPGSSVKVSCKASGGTFGISWVRQAPGQGLEWMGRIIPILGTANHAQKFQGRVTITADKSTGTVYMELSSLRSEDTAVYYCARDGDSGSYYETLGFDYWGQGTLVTVSSGGGGSGGGGSGGGGQVQLVESGGGVVQSGRSLRLSCAASGFTFSSYAMHWVRQAPGKGLEWVAVISHDGSNTYYEDSVKGRFTISRDNSKNTLHLQVNSLRVEDTAVYYCARAKGEVRYFDWAEQGGDYWGQGTLVTVSS
# chain 2: QSALTQPPSASGSPGQSVTISCTGTSSDVGGYNYVSWYQQHPGKAPKLMIYEVNKRPSGVPDRFSGSKSGNTASLTVSGLQAEDEADYYCSSYAGSNNLVFGGGTKLTVLGGGGSGGGGSGGGGSYELTQPPSVSVSPGQTARITCSGDALPKKYAYWYQQKSGQAPVLVIYEDSKRPSGIPERFSGSSSGTMATLTISGAQVEDEADYYCYSTDNSGDHGVFGGGTKLTVL
# B7: COVIC-122 (antibody)
# chain: QVQLQESGGGLVQAGGSLRLSCAASGRTFSEYAMGWFRQAPGKEREFVATISWSGGSTYYTDSVKGRFTISRDNAKNTVYLQMNSLKPDDTAVYYCAAAGLGTVVSEWDYDYDYWGQGTQVTVSSGGSGGSQVQLQESGGGLVQAGGSLRLSCAASGRTFSEYAMGWFRQAPGKEREFVATISWSGGSTYYTDSVKGRFTISRDNAKNTVYLQMNSLKPDDTAVYYCAAAGLGTVVSEWDYDYDYWGQGTQVTVSSGGGGSGGGGSKKKPLDGEYFTLQIRGRERFEMFRELNEALELKDAQAGKEPGGGGGSGGGGSQVQLQESGGGLVQAGGSLRLSCAASGRTFSEYAMGWFRQAPGKEREFVATISWSGGSTYYTDSVKGRFTISRDNAKNTVYLQMNSLKPDDTAVYYCAAAGLGTVVSEWDYDYDYWGQGTQVTVSSGGSGGSQVQLQESGGGLVQAGGSLRLSCAASGRTFSEYAMGWFRQAPGKEREFVATISWSGGSTYYTDSVKGRFTISRDNAKNTVYLQMNSLKPDDTAVYYCAAAGLGTVVSEWDYDYDYWGQGTQVTVSS
# B8: COVIC-331 (antibody, V domains shown)
# VH: EVQLVESGGGLIQVGGSLRLSCAASGLTVTSNYMNWVRQGPGKGLEWVSLIYSGGTTYYADSVKGRFTISRDDSKNTLYLQMNSLRAEDTAVYYCARPIVGARSGMDVWGQGTAVTVSS
# VL: DIQMTQSPSSLSASVGDRVTITCQASQDINKYLNWYQQKPGKAPKLLIYDASNLETGVPSRFSGSGSGTDFTFTISSLQPEDLATYYCHQFDNLPGTFGGGTKVEIK
# B9: COVIC-158 (antibody, V domains shown)
# VH: EVQLVESGGGLIQPGGSLRLSCAASGLTVSSNYMNWVRQAPGKKLEWVSVIYSGGSTFYADSVRGRFTISRDNSKNTLFLQMNSLRAEDSAVYYCARDLGPYGVDVWGQGTTVTVSS
# VL: DIQLTQSPSFLSASVGDRVTITCWASQGISSYLAWYQQKPGKAPKLLIYAASTLQSGVPSRFSGSGSGTEFTLTISSLQPEDFATYYCQQLNSYPLTFGQGTRLEIKR
# B10: COVIC-360 (antibody, V domains shown)
# VH: B1 VH
# VL: DIQMTQSPSSLSASVGDRVTITCQASQKIHYAINWYQQKPGKAPKLLIYGTSYLGGGVPSRFSGSGSGTDFTLTISSLQPEDFATYYCQQGYIVPNSFGGGTKVEIK
# B11: COVIC-128 (antibody)
# chain 1: not shown
# chain 2: QVQLQESGGGLVQAGGSLRLSCAASGRTFSEYAMGWFRQAPGKEREFVATISWSGGSTYYTDSVKGRFTISRDNAKNTVYLQMNSLKPDDTAVYYCAAAGLGTVVSEWDYDYDYWGQGTQVTVSSGGSGGSQVQLQESGGGLVQAGGSLRLSCVASGSIFSINAMDWYRQAPGKQRELVAGITSGGSTNYGDFVKGRFTISRDNAKNTVYLQMDSLKPEDTAVYYCAAEVGGWGPPRPDYWGHGTQVTVSSGGGGSGGGGSKRTVAAPSVFIFPPSDEQLKSGTASVVCLLNNFYPREAKVQWKVDNALQSGNSQESVTEQDSKDSTYSLSSTLTLSKADYEKHKVYACEVTHQGLSSPVTKSFNRGEC
# B12: COVIC-295 (antibody, V domains shown)
# VH: QVQLVQSGAEVKKPGSSVKVSCKASGGTFSSYSFIWVRQAPGQGLEWMGRIIPILGIANYAQKFQGRVTITADKSTTTAYMELSSLRSEDTAVYYCARGTEYGDYDVSHDWGQGTLVTVSS
# VL: not shown
# B13: COVIC-143 (antibody, V domains shown)
# VH: EVQLVESGGGVVQPGRSLRLSCAASGFTFSNYAMHWVRQAPGKGLEWVAVISYDGSNKYSADSVKGRFTISRDNSKNTLYLQMNSLRPEDTAVYYCARDGVGTMVRGVMSPLFDYWGQGTLVTVSS
# VL: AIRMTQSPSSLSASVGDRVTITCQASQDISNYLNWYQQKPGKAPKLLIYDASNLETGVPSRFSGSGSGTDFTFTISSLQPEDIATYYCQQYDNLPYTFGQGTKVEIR
# B14: COVIC-184 (antibody, V domains shown)
# VH: QITLKESGPTLVKPTQTLTLTCTFSGFSLSTSGVGVGWIRQPPGKALEWLALIYWDDDKRYSPSLKSRLTITKDTSKNQVVLTMTNMDPVDTATYYCAHHKIERIFDYWGQGTLVTVSS
# VL: QSALAQPASVSGSPGQSITISCTGTSSDVGAYNYVSWYQQHPGKAPKLMIYDVSKRPSGVSNRFSGSKSGNTASLTISGLQAEDEADYYCSSYTTSSTVFGGGTKLTVL
# B15: COVIC-297 (antibody, V domains shown)
# VH: EVLLVESGGGLIQPGGSLRLSCAASGLTVSSNYMSWVRQAPGKGLEWVSVIYSGGSTFYADSVKGRFTISRDNSKNTLYLQMNSLRAEDTAVYYCARDLVTWGLDYWGQGTLVTVSS
# VL: AIQLTQSPSSLSASVGDRVTITCRASQGISSYLAWYQQKPGKAPKLLIYAASTLQSGVPSRFSGSGSGTDFTLTISSLQPEDFATYYCQLLNTDPITFGQGTRLEIK
# B16: COVIC-186 (antibody, V domains shown)
# VH: QVQLLQSGAEVKKPGASVKVSCKASGYSFTSYYMHWVRQAPGQGLEWMGIINPSGGGTTYAQKFQGRVTMTRDTSTSTVYMELSSLRSEDTAVYYCARPGGGSYQEFDYWGQGTLVTVSS
# VL: DIQMTQSPSSLSASVGDRVTITCRASQSISSYLNWYQQKPGKAPKLLISAASSLQSGVPSRFSGSGSGTDFTLTISSLQPEDFATYYCQQSYNTLQVTFGGGTKVEIK
# B17: COVIC-250 (antibody, V domains shown)
# VH: QVQLQQSGPGLVKPSETLALTCTVSGGSTSSYYWSWIRQPPGKGLEWIGSIYYSGSTDYNPSLKSRVTISLDTSKTQFSLKLSSVTAADTAVYYCARVDTSGWYTGDVFDYWGQGTLVTVSS
# VL: DIQMTQPPSSLSASVGDRVTITCRASQSLSSYLNWYQQKPGKAPKLLIYAVFSLQSGVPSRFSGSGSGTDFTLTISSLQPEDFATYYCQQSYSTPLTFGGGTKVEIK
# B18: COVIC-31 (antibody, V domains shown)
# VH: EVQLVESGVEVKKPGASVKVSCKAFGYTFTGQDMHWVRQAPGQGLEWMGWINPSSAGTNYAQKFQGRVTMTRDTSISTAYMELSRLRSDDTSVYYCRKMLTIFGKVNQTMLLISGAKGQWSPSLQWGQGTMVTVSS
# VL: DIVMTQTPLSLSVTPGQPASISCKSGQSLLHSDGKTYLYWYLQKPGQPPQLLIYEVSNRFSGVPDRFSGSGSGTDFTLKISRVEAEDVGVYYCMQSIQLPPTFGQGTKVEIK
# B19: COVIC-290 (antibody, V domains shown)
# VH: QMQLVQSGPEVKKPGTSVKVSCKASGFTFSSSAVQWVRQARGQHLEWIGWIVVGSGNTNYAQKFQERVTLTRDMSTRTAYMELSSLRSEDTAVYYCAAPNCNSTTCHDGFDIWGQGTVVTVSS
# VL: EIVLTQSPGTLSLSPGERATLSCRASQSVRSSYLGWYQQKPGQAPRLLIYGASSRATGIPDRFSGSGSGTDFTLTISRLESEDFAVYYCQQYDNSPWTFGQGTKVEIK
# Biological target: SARS-CoV-2 spike RBD (Wuhan-Hu-1) (Severe acute respiratory syndrome …, UniProt P0DTC2)
# Test: SPR
binder,measurement,value
B1,Kd,0.0327 nM
B2,Kd,9.47 nM
B3,Kd,9.81 nM
B4,Kd,0.0198 nM
B5,Kd,0.826 nM
B6,Kd,1.85 nM
B7,Kd,203 nM
B8,Kd,0.0704 nM
B9,Kd,1.59 nM
B10,Kd,0.0132 nM
B11,Kd,119 nM
B12,Kd,0.266 nM
B13,Kd,5.91 nM
B14,Kd,34.4 nM
B15,Kd,0.271 nM
B16,Kd,6.1 nM
B17,Kd,17.7 nM
B18,Kd,70.2 nM
B19,Kd,0.326 nM

# — article PMC12014896 (2025)
